This data set deals with the molecule itself. The data set is described as follows: cross-linking.

Residue numbers refer to the chain shown, from its start.

B1: purified recombinant FLAG-6PGD (6-phosphogluconate dehydrogenase) WT (enzyme, human)
chain: MAQADIALIGLAVMGQNLILNMNDHGFVVCAFNRTVSKVDDFLANEAKGTKVVGAQSLKEMVSKLKKPRRIILLVKAGQAVDDFIEKLVPLLDTGDIIIDGGNSEYRDTTRRCRDLKAKGILFVGSGVSGGEEGARYGPSLMPGGNKEAWPHIKTIFQGIAAKVGTGEPCCDWVGDEGAGHFVKMVHNGIEYGDMQLICEAYHLMKDVLGMAQDEMAQAFEDWNKTELDSFLIEITANILKFQDTDGKHLLPKIRDSAGQKGTGKWTAISALEYGVPVTLIGEAVFARCLSSLKDERIQASKKLKGPQKFQFDGDKKSFLEDIRKALYASKIISYAQGFMLLRQAATEFGWTLNYGGIALMWRGGCIIRSVFLGKIKDAFDRNPELQNLLLDDFFKSAVENCQDSWRRAVSTGVQAGIPMPCFTTALSFYDGYRHEMLPASLIQAQRDYFGAHTYELLAKPGQFIHTNWTGHGGTVSSSSYNA
modifications: background lysine acetylation; acetylation at K76 and K294 increased after incubation with lysates of NAM+TSA-treated H1299 cells
For the protein B1, the stoichiometry N (in general, a count of units in the complex or per binding partner) turned out to be 2.

B2: purified recombinant FLAG-6PGD K76R (enzyme, human)
chain: B1 chain with K76R
modifications: acetylation at K294 increased after incubation with lysates of NAM+TSA-treated H1299 cells
As for B2, the “stoichiometry N” value came out at 2.

The values above are taken from PMC4142084 (Molecular cell, 2014).
